Measurements from patent US7910544B2, “Conformationally constrained parthyroid hormone (PTH) analogs” (The General Hospital Corporation, priority 2003, dated 2011).
Non-standard residues stand in square brackets, D forms with d. No end group written: not given here. Bpa = N[C@@H](Cc1ccc(C(=O)c2ccccc2)cc1)C(=O)O; hArg = N=C(N)NCCCC[C@H](N)C(=O)O; Nle = CCCC[C@H](N)C(=O)O; Deg = CCC(N)(CC)C(=O)O

Columns and labels:
[1] = biological target: T1, P1R-delNt (Homo sapiens, UniProt Q03431); assay: cAMP antagonism assay in COS-7 cells transfected with P1R-delNt; format: cell-based; details: for antagonism of agonist-induced cAMP response: P1R-delNt, antagonist 1×10−5 M; for N versus J domain selectivity of P1R antagonist: concluded from cAMP antagonism on wild-type P1R and P1R-delNt in COS-7 cells
T1 construct: expressed in transfected cells; host or cells: COS-7
T1 sequence (Q03431 with tags, fused parts or gaps limits assumed): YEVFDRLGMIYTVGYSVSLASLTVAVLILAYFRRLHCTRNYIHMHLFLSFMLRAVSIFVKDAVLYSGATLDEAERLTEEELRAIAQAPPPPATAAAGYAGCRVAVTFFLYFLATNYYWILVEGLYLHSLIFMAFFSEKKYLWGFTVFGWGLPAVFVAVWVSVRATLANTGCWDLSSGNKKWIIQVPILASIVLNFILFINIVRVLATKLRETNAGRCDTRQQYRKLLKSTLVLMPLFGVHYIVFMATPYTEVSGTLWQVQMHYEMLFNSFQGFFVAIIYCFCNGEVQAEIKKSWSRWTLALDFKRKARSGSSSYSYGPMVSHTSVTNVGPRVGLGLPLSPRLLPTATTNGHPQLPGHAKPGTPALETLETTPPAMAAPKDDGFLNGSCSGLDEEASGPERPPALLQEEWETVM
Description: (§1) FIG. 8. “N” versus “J” Domain selectivity of P1R Antagonists in COS-7 Cells. cAMP antagonism assays were performed in COS-7 cells transfect with the wild-type P1R (A), or a P1R derivative (P1R-delNt) having most (residues 24-181) of the P1R N domain deleted (B). Cells were treated with the agonist [Aib^1,3,Tyr^34]hpTH(1-34)NH2 ([Aib^1,3]PTH(1-34)), which utilizes both N and J domains for affinity/potency, or with [Ac5c^1, Aib^3, Gln^10,Har^11,Ala^12,Trp^14]PTH(1-14)NH2 ([Ac5c^1]PTH(1-14)), which uses only the J domain for affinity/potency, at the concentrations indicated in the key, so as to elicit half-maximum cAMP responses in the absence of antagonist (none). The analogs PTHrP(5-36) and Deg^1,3,Bpa^2-PTH(1-21) were added at 1×10−5 M, as indicated.
(§2) Cell Culture. The cell line HKRK-B28 (Shimizu, el al., Biochem. 41: 13224-33 (2002)) was derived from the porcine kidney cell line, LLC-PK1 by stable transfection with plasmid DNA encoding the opossum/rat hybrid P1R and expresses ˜280,000 receptors per cell. The HKRK-B7 cell line was derived from the LLC-PK1 cell line by stable transfection with DNA encoding human P1R. HKRK-B7 cells expresses approximately 950,000 human P1R per cell (Takasu, H., et al., J. Bone Miner. Res. 14: 11-20 (1999)). These cells, as well as COS-7 cells and SaOS-2-B10 cells, are cultured at […] in T-75 flasks ([…]) in Dulbecco's modified Eagle's medium (DMEM) supplemented with fetal bovine serum (10%), penicillin G (20 units/ml), streptomycin sulfate (20 μg/ml) and amphotericin B (0.05 μg/ml) in a humidified atmosphere containing 5% Co2. Stock solutions of EGTA/trypsin and antibiotics are from GIBCO; fetal bovine serum is from Hyclone Laboratories (Logan, Utah). COS-7 cells sub-cultured in 24-well plates are transfected with plasmid DNA (200 ng per well) encoding the wild-type human P1R or truncated human P1R deleted for residues (24-181) (Shimizu, M., et al., J. Biol. Chem. 275: 21836-21843 (2000)) that is purified by cesium chloride/ethidium bromide density gradient centrifugation, and FuGENE 6 transfection reagent (Roche Indianapolis Ind.) according to the manufacturer's recommended procedure. All cells, in 24-well plates, are treated with fresh media and shifted to 33° C. for 12 to 24 h prior to assay.
(§3) cAMP Stimulation. Stimulation of cells with peptide analogs is performed in 24-well plates. Cells are rinsed with 0.5 mL of binding buffer (50 mM Tris-HCl, 100 mM NaCl, 5 mM KCl, 2 mM CaCl2, 5% heat-inactivated horse serum, 0.5% fetal bovine serum, adjusted to pH 7.5 with HCl) and treated with 200 μL of cAMP assay buffer (Delbecco's modified Eagle's medium containing 2 mM 3-isobutyl-1-methylxanthine, 1 mg/mL bovine serum albumin, 35 mM Hepes-NaOH, pH 7.4) and 100 μL of binding buffer containing varying amounts of peptide analog (final volume=300 μL). The medium is removed after incubation for 30 to 60 minutes at room temperature, and the cells are frozen on dry ice, lysed with 0.5 mL 50 mM HCl, and refrozen ([…]). The cAMP content of the diluted lysate is determined by radioimmunoassay. The EC50 response values are calculated using nonlinear regression (see below).
“N” versus “J” domain selectivity of P1R antagonists was investigated in COS-7 Cells (FIG. 8). cAMP antagonism assays were performed in COS-7 cells transfect with the wild-type P1R (A), or a P1R derivative (P1R-delNt) having most (residues 24-181) of the P1R N domain deleted (B). Cells were treated with the agonist [Aib^1,3,Tyr^34]hPTH(1-34)NH2 ([Aib^1,3]PTH(1-34)), which utilizes both N and J domains for affinity/potency, or with [Ac5c^1,Aib^3,Gln^10,Har^11,Ala^12,Trp^14]PTH(1-14)NH2 ([Ac5c^1]PTH(1-14)), which uses only the J domain for affinity/potency, at the concentrations indicated in the key, so as to elicit half-maximum cAMP responses in the absence of antagonist (none). The analogs PTHrP(5-36) and Deg^1,3,Bpa^2-PTH(1-21) were added at 1×10−5 M, as indicated.

[2] = biological target: T2, wild-type P1R (Homo sapiens, UniProt Q03431); assay: cAMP antagonism assay in COS-7 cells transfected with wild-type P1R; format: cell-based; details: WT receptor; agonist [Ac5c1,Aib3,Gln10,Har11,Ala12,Trp14]PTH(1-14)NH2; antagonist 1×10−5 M; listed as Deg^1,3,Bpa^2-PTH(1-21)
T2 construct: expressed in transfected cells; host or cells: COS-7
T2 sequence (Q03431 27-593): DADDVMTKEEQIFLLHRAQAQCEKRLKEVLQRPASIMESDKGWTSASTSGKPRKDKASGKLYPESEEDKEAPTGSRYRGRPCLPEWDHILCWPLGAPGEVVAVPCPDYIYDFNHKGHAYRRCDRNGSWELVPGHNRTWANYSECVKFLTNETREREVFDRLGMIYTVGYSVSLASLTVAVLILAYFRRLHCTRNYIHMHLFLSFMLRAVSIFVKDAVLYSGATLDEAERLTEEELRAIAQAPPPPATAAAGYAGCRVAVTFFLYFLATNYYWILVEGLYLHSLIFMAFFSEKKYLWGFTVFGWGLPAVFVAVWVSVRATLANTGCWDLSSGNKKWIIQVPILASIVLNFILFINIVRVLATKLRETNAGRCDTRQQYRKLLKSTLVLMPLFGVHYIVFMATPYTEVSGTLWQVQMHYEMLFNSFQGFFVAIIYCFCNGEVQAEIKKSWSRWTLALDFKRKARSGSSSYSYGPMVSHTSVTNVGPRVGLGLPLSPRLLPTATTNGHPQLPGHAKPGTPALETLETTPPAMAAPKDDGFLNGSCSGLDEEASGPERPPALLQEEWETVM
Description: as §1
Cell Culture. The cell line HKRK-B28 (Shimizu, el al., Biochem. 41: 13224-33 (2002)) was derived from the porcine kidney cell line, LLC-PK1 by stable transfection with plasmid DNA encoding the opossum/rat hybrid P1R and expresses ˜280,000 receptors per cell. The HKRK-B7 cell line was derived from the LLC-PK1 cell line by stable transfection with DNA encoding human P1R. […]
cAMP Stimulation. […] The cAMP content of the diluted lysate is determined by radioimmunoassay. The EC50 response values are calculated using nonlinear regression (see below). […]

[3] = biological target: T1, P1R-delNt; assay: Competitive antagonism on P1R-delNt (shift of agonist dose-response curve, cAMP); format: cell-based; details: for shift of agonist dose-response curve: agonist [Aib1,3,Tyr34]hPTH(1-34)NH2, antagonist 1×10−5 M, COS-7/P1R-delNt; for mechanism of inhibition: from shift of [Aib1,3,Tyr34]hPTH(1-34)NH2 dose-response curve
Source text: FIG. 10. Competitive Antagonism on P1R-delNt. COS-7 cells transfected with P1R-delNt were stimulated with varying concentrations of the agonist [Aib^1,3,Tyr^34]hPTH(1-34)NH2 ([Aib^1,3]PTH(1-34)), either in the absence of antagonist or in the presence of an antagonist, [Deg^1,3,Bpa2,M]PTH(1-14) or [Deg^1,3,Bpa^2,M]PTH(1-21) each at 1×10−5 M, as indicated in the figure key.
as §2, §3
The pharmacologic mechanism by which [Deg^1,3,BPA^2,Nle^8,Gln^10,Har^11,Ala^12,Trp^14,Arg^19,Tyr^21]PTH(1-21)NH2 and [Deg^1,3,Bpa^2,Gln^10,Har^11,Ala^12,Trp^14]PTH(1-14)NH2 function as antagonists was investigated in FIG. 10. In this study, the effects of the antagonists at […], on the dose-response curve elicited by the agonist [Aib^1,3,Tyr^34]hPTH(1-34)NH2 were examined in […].

[4] = biological target: T3, P1R (Homo sapiens, UniProt Q03431); details: literature (Luck et al. 1999); read-out: cAMP-signaling potency EC50; cited from earlier work
T3 sequence (Q03431 27-593): T2 sequence (Q03431 27-593)

DegBpaDegGluIleGlnLeuNleHisGlnHarAlaLysTrpLeuAlaSerValArgArgTyrNH2 ([Deg][Bpa][Deg]EIQL[Nle]HQ[hArg]AKWLASVRRY-NH2; N-terminus assumed; SMILES CCCC[C@H](NC(=O)[C@H](CC(C)C)NC(=O)[C@H](CCC(N)=O)NC(=O)[C@@H](NC(=O)[C@H](CCC(=O)O)NC(=O)C(CC)(CC)NC(=O)[C@H](Cc1ccc(C(=O)c2ccccc2)cc1)NC(=O)C(N)(CC)CC)[C@@H](C)CC)C(=O)N[C@@H](Cc1c[nH]cn1)C(=O)N[C@@H](CCC(N)=O)C(=O)N[C@@H](CCCCNC(=N)N)C(=O)N[C@@H](C)C(=O)N[C@@H](CCCCN)C(=O)N[C@@H](Cc1c[nH]c2ccccc12)C(=O)N[C@@H](CC(C)C)C(=O)N[C@@H](C)C(=O)N[C@@H](CO)C(=O)N[C@H](C(=O)N[C@@H](CCCNC(=N)N)C(=O)N[C@@H](CCCNC(=N)N)C(=O)N[C@@H](Cc1ccc(O)cc1)C(N)=O)C(C)C)
antagonism of agonist-induced cAMP response ([1]; agonist [Ac5c1,Aib3,Gln10,Har11,Ala12,Trp14]PTH(1-14)NH2): strongly inhibited
antagonism of agonist-induced cAMP response ([1]; agonist [Ac5c1,Aib3,Gln10,Har11,Ala12,Trp14]PTH(1-14)NH2, listed as Deg^1,3,Bpa^2-PTH(1-21)): antagonizes either agonist
antagonism of agonist-induced cAMP response ([1]; agonist [Aib1,3,Tyr34]hPTH(1-34)NH2): strongly inhibited
antagonism of agonist-induced cAMP response ([1]; agonist [Aib1,3,Tyr34]hPTH(1-34)NH2, listed as Deg^1,3,Bpa^2-PTH(1-21)): antagonizes either agonist
N versus J domain selectivity of P1R antagonist [1]: potent J-domain selective antagonist
N versus J domain selectivity of P1R antagonist ([1]; listed as Deg^1,3,Bpa^2-PTH(1-21)): J domain-selective antagonist
antagonism of agonist-induced cAMP response [2]: antagonizes PTH(1- 14), more effectively than does PTHrP(5-36)
shift of agonist dose-response curve [3]: rightward and parallel shift in the agonist response curve
shift of agonist dose-response curve ([3]; listed as [Deg^1,3,Bpa^2,M]PTH(1-21)): parallel, right-ward shift in the agonist dose-response curve
mechanism of inhibition [3]: competitive

PTH(1-34): first 34 amino acids of parathyroid hormone
EC50 [4]: ~2 nM

DegBpaDegGluIleGlnLeuMetHisGlnHarAlaLysTrpNH2 ([Deg][Bpa][Deg]EIQLMHQ[hArg]AKW-NH2; N-terminus assumed; SMILES CC[C@H](C)[C@H](NC(=O)[C@H](CCC(=O)O)NC(=O)C(CC)(CC)NC(=O)[C@H](Cc1ccc(C(=O)c2ccccc2)cc1)NC(=O)C(N)(CC)CC)C(=O)N[C@@H](CCC(N)=O)C(=O)N[C@@H](CC(C)C)C(=O)N[C@@H](CCSC)C(=O)N[C@@H](Cc1c[nH]cn1)C(=O)N[C@@H](CCC(N)=O)C(=O)N[C@@H](CCCCNC(=N)N)C(=O)N[C@@H](C)C(=O)N[C@@H](CCCCN)C(=O)N[C@@H](Cc1c[nH]c2ccccc12)C(N)=O)
N versus J domain selectivity of P1R antagonist [1]: behaved similarly in these assays to Deg^1,3,Bpa^2-PTH(1-21)
shift of agonist dose-response curve [3]: rightward and parallel shift in the agonist response curve
shift of agonist dose-response curve ([3]; listed as [Deg^1,3,Bpa2,M]PTH(1-14)): parallel, right-ward shift in the agonist dose-response curve
mechanism of inhibition [3]: competitive
